# Reference: ChEMBL document CHEMBL2074118, “Effects of tacrolimus and cyclosporin A on peptide transporter PEPT1 in Caco-2 cells” (Pharm Res, 2001)
# B1: Solute carrier family 15 member 1 (Homo sapiens), P46059 (protein)
# chain: MGMSKSHSFFGYPLSIFFIVVNEFCERFSYYGMRAILILYFTNFISWDDNLSTAIYHTFVALCYLTPILGALIADSWLGKFKTIVSLSIVYTIGQAVTSVSSINDLTDHNHDGTPDSLPVHVVLSLIGLALIALGTGGIKPCVSAFGGDQFEEGQEKQRNRFFSIFYLAINAGSLLSTIITPMLRVQQCGIHSKQACYPLAFGVPAALMAVALIVFVLGSGMYKKFKPQGNIMGKVAKCIGFAIKNRFRHRSKAFPKREHWLDWAKEKYDERLISQIKMVTRVMFLYIPLPMFWALFDQQGSRWTLQATTMSGKIGALEIQPDQMQTVNAILIVIMVPIFDAVLYPLIAKCGFNFTSLKKMAVGMVLASMAFVVAAIVQVEIDKTLPVFPKGNEVQIKVLNIGNNTMNISLPGEMVTLGPMSQTNAFMTFDVNKLTRINISSPGSPVTAVTDDFKQGQRHTLLVWAPNHYQVVKDGLNQKPEKGENGIRFVNTFNELITITMSGKVYANISSYNASTYQFFPSGIKGFTISSTEIPPQCQPNFNTFYLEFGSAYTYIVQRKNDSCPEVKVFEDISANTVNMALQIPQYFLLTCGEVVFSVTGLEFSYSQAPSNMKSVLQAGWLLTVAVGNIIVLIVAGAGQFSKQWAEYILFAALLLVVCVIFAIMARFYTYINPAEIEAQFDEDEKKNRLEKSNPYFMSGANSQKQM
# Substrate: CN(CC(=O)O)C(=O)CN
# Assay: TP_TRANSPORTER: uptake in Caco-2 cells
# Type: functional, cell-based
protein,measurement,value
B1,Km,830 µM
